Format: cell-based, P. pastoris
Method: Precultures of P. pastoris transformants were prepared in buffered complex glycerol media (BMGY). BMGY contained: 10 g/l yeast extract, 20 g/l peptone, 3.4 g/l yeast nitrogen base, 10 g/l ammonium sulfate, 100 mM potassium phosphate (pH 6), 0.4 mg/l biotin and 1% (v/v) glycerol. Erlenmeyer flasks (500 ml) containing 50 ml BMGY media were inoculated with single colonies of 24 h old YPD-agar cultures of P. pastoris KM71 mut^s3/CYP505E3 and incubated at 30° C. and 225 rpm for 24 h. The cultures were harvested using pre-weighed centrifuge tubes at 3000 g for 5 min and stored on ice until further use.
The main cultures for expression were prepared in buffered complex methanol media (BMMY) containing 10 g/l yeast extract, 20 g/l peptone, 3.4 g/l yeast nitrogen base, 10 g/l ammonium sulfate, 100 mM potassium phosphate (pH 6), 0.4 mg/l biotin and 0.5 or 1% (v/v) methanol. Harvested cells from precultures were resuspended in BMMY media to final concentration of 1 g WC per 40 ml (appx. 25 g/l). The resuspended cultures (100 ml) were transferred to 500 ml Erlenmeyer flasks and incubated at 25° C. and 225 rpm for 24 h. The cultures were then harvested at 3000 g for 5 min using pre-weighed centrifuge tubes.
Different transformants of Pichia pastoris KM71 harbouring the CYP505 genes for SEQ ID Nos 1 to 7 and 9 to 12 were grown and harvested as described above. The harvested cells were resuspended to give 1 g wet cell weight in 40 ml MOPS buffer (200 mM, 100 mM glucose, 100 mM glycerol, pH 8) and 1 ml aliquots of these cell suspensions were transferred to 40 ml amber vials. Dodecane, 1-dodecanol and 1-tetradecanol were added neat to these cell suspensions to give final concentrations of 200 mM in the case of the alcohols and 1 M in the case of dodecane while in the case of dodecanoic acid 20 μl of a 500 mM stock solution (in DMSO) was added to give a final concentration of 10 mM. Transformants harbouring the CYP505 genes for SEQ ID Nos 1 to 4 were tested for the biotransformation of 1-dodecanol, 1-tetradecanol, dodecanoic acid, tetradecanoic acid and dodecane, while those harbouring the CYP505 genes for SEQ ID Nos 5 to 7 and 9 to 12 were only tested for the biotransformation of 1-dodecanol and dodecanoic acid. The biotransformations were incubated at 25° C. and 225 rpm for 24 h. Extractions were performed using ethyl acetate (500 μl×2). The extracts were analyzed using GC/MS.

B1: CYP505Ao: CYP505 cytochrome P450 monooxygenase from Aspergillus oryzae, SEQ ID No 9 (protein, listed as Aspergillus oryzae)
chain: MRQNDNEKQICPIPGPQGLPFLGNILDIDLDNGTMSTLKIAKTYYPIFKFTFAGETSIVINSVALLSELCDETRFHKHVSFGLELLRSGTHDGLFTAYDHEKNWGLAHRLLVPAFGPLRIREMFPQMHDIAQQLCLKWQRYGPRRPLNLVDDFTRTTLDTIALCAMGYRFNSFYSEGDFHPFIKSMVRFLKEAETQATLPSFISNLRVRAKRRTQLDIDLMRTVCREIVTERRQTNLDHKNDLLDTMLTSRDSLSGDALSDESIIDNILTFLVAGHETTSGLLSFAVYYLLTTPDAMAKAAHEVDDVVGDQELTIEHLSMLKYLNAILRETLRLMPTAPGFSVTPYKPEIIGGKYEVKPGDSLDVFLAAVHRDPAVYGSDADEFRPERMFDEHFQKLPANSWKPFGNGKRSCIGRAFAWQEALMILALILQSFSLDLVDRGYTLKLKESLTIKPDNLWAYATPRPGRNVLHARLALQTNSTHPEGLMSLKHETVESQPATILYGSNTGTCEALAHRLAIEMSSKGRFVCKVQPMDEIEHRRLPRGQPVIIVTGSYDGRPPENARHFVKWLQSLEGNDLEGIQYAVFGCGLPGHHDWSTTFYKIPTLIDTIMAEHGGARLAPRGSADTAEDDPFVELESWSERRVWPGLEAAFDLVRHNSSDGTGKSTRITIRSPYTLRAAHETAVVHQVRVLTSAETTKKVHVELALPDTINYRPGDHLAILPLNSRQSVQRVLSLFQIGSDTILYITSSSATSLPTDTPISAHDLLSGYVELNQVATPTSLRSLAAKATDEKTAEYLEALATDRYTTEVRGNHLSLLDILESYSVPSIEIQHYIQMLPPLRPRQYTISSSPRLNRGQASLTVSVMERADIGGPRNCAGVASNYLASCTPGSILRVSLRHANPDFRLPDESCSHPIIMVAAGSGIAPFRAFVQERSVRQKEGIILPPAFLFFGCRRADLDDLYREELDAFEEQGVVTLFRAFSRAQSESHGCKYVQDLLWMERVRVKTLWGQDAKVFVCGSVRMNEGVKAIISKIVSPTPTEELARRYIAETFI
- ω-7 hydroxylase activity C12FA: −
- ω-7 hydroxylase activity C12ol: −

B2: CYP505Hv: CYP505 cytochrome P450 monooxygenase from Hypocrea virens, SEQ ID No 10 (protein, listed as Hypocrea virens)
chain: MKPAKNPNLVEIPKPKGLPVIGSLHHIDLESPLFSLIELIQPLGPICQLTFGSELNIFVSSIELLNELCDESRFQKIVTAELEKLRHVVHDGLFTARNEERNWEIAHRILMPVFGTIKIREMFPEMKDLAQQLCLKWARYGEEYVIDVTADFTRLTLDTLALCTMGFRFNSFHNGTVLHPFVDSMVRTLKEASVQAALPNFINSLRKKSWRRYEKDTAFMRKLCQDIIDKRKSQTDTDSHDLLAALLRGRDPKTGEGLSDDSIIDNMLTFLIAGHETTSGLLSFAMYYLLANPQTMEKARQEVDEVSQGSPIAVEHLSKLPYLNAVLKETLRLQPTAPGFILSSPKDEIIGGKYLIPANIPIGVLLHMVHLDKAVYGEDAAEFKPERMLDENFNKLPPNSWKPFGNGMRGCIGRAFATQEALLIVAMLLQSFTFEMADPGYKLKIKETLTVKPDNFRMKAKLRRGGTATDFQRELQSLGSVGAKLSSTPSVTSAQTGGGDKKPLTILYGSNSGTCEALAYRLASDATLHGFYARKIAPLNAARNSLPKSEPVIILAASYDGLPSDNAEEFFDWLNTAEKDSLKGVSYSVFGCGHRDWVATFQRVPILIDDLLQRAGAERFANRGLADSAVMDLFVELEKWTTDSVWPAISQTDGKQDNDGEGKLISSLLKVEFSQPRQLQQYSHLVEATVMESRSLTTPSAIGKKMHVDIQLPSGVSYHPGDHLLVLPVNPIRNVKRVLSRFHLTWDTIVRASGNESVRIPIETAMTVHELLSSYFELAQPATPRDIRVLAAAAEDEATKQVLNNLATTSYLEDIQEKKTSLLDLLEKFPEISIAFGTYLTLLPSLRLRTYSISSSPSWNSSRATLTLSVLDEPATTPGSKRYLGVASNHLAGLTPGDLIHVATRPVKGIFQMPADLSKAPTIMIAAGAGLAPFRGFIQERAYQQQNGVQLAPAALFFGCRSSHDDLYRSELDAFESSGVIRVFRAYSREDVGSKSNTRKGYVQDSLQAEKDVFVQLWNAGAKVYVCGSVKMASQVKDLVANLVYTAEPMDAQKEFTPQEWFKRFEKTRYAAEIFT
- ω-7 hydroxylase activity C12FA: −
- ω-7 hydroxylase activity C12ol: −

B3: CYP505Om: CYP505 cytochrome P450 monooxygenase from Oidiodendron maius, SEQ ID No 11 (protein, listed as Oidiodendron maius)
chain: MTKKNHALIPIPGPSVWPLLGNLFDIDTEHGLASVLEMGRSYGDIFQLVLGGNKLVFLQTHALFDEVCDESRFCKVVVSGLGNLRAGVNDGLFTAHDGEHNWGVAHRIIMPIFGPIKIRETLGGMKDVCQELSLKWARYGPDHRIDIAGDLTRLTLDTIAFCTMGYRFNSFYRNSDVHPFVKSMVGFLREADKSSMIPEYLNAFRWKARRSFLGDIASMREMSMMILNLRRGNPSDRDDLLNALLHGRDPKTGEGMSDESIINNLITFLVAGHETTSGALSFVFYYLLTNPESLKNAREEVDRVIGAGNITADHLSKLPYIDAVLREALRLNPTGPAITLGAREDTTLGGKYAVKKGEPVLCMFHNIHRDKKVYGEDADEWKPERMMDENFNKLPKNAWKPFGNGTRGCIGRAFAWQESQLVIASILQNFDLTLDNPDYKLEIVETLTIKPGNFYVRAKLRSGRTPRELCGFSNPISTNIQIKNGTIAPANDGQVGNSTPVTILYGSNSGTCEALAHRLARDAPSYGYSVTTVATLDSVIGILPRAKDELVVIITCSYDGLPADNAVRFCNWLKTLDEDALGGMPFAVFACGHHDWAKTFYKVPIMIDELLARAGAHRVAQMGKANSAVSDMFSDLENWEDEHLWSSSSAAGNETVDNVARTEVKQDITITNPRARALHHNAVECIVSETHKLSESGSALKYHVEIQLPANMKYAPGDHLSVLPINPRQNVRRALARFHLAGDSVLSVARIGHMGTLGQETLSAFDVFASYVELSQPATRRNIATLLSVTPEGEGRYELAELGGAAFESQIRDMRVSVLDLLERYKAIKLCVGAFIDMLPPLRVRTYSISSSALWKPSHASLTISVLAQPALSGQGSFLGVASNFLADLVPGDAVHFTIRPCKKQFHLPDDASAHPIIMVAAGSGIAPFRGFIQDRALQRRNGVQLQPAILFFGCRGSKQDDLYRQELDEFEAEGVVSVRRAFSGEETVSISESRMYVQDRMWADRAEVIQLWNLGAKIYVCGGINMADGVREIFNEIVGPTEVDGKRGAESLNKLSEETMSARYVAEIFSQT
- ω-7 hydroxylase activity C12FA: −
- ω-7 hydroxylase activity C12ol: −

B4: CYP505St: CYP505 cytochrome P450 monooxygenase from Setosphaeria turcica, Seq ID 12 in Table 2 (protein, listed as Setosphaeria turcica)
chain: MSAPNRQLVPIPGPSALPIVGNTFDLDLDASIQSLVNMFEEYGPVFQLTIAGHKQIFVGNVQLTNEVCDESRFCKIVFSGLELLRSAVHDGLFTAHEGERNWDIAHRILMPVFGPTKIRGMFDQMNDIAQQLCLKWGRYGPTFPIEVTEDFTRLTLDTIALCAMGYRFNSFYRDNMHPFVDRMNRFLKDTNTQSGLPDLFNSLWLHAKKRNKEDIKAMREFSQEVVDQRRQNPVDADDLLNALLHQTDPKTGEGLSDSSIIDNMITFLVAGHETTSGLLSFAFYYMLKNPWAMEKAQQEVDNVIGTERVTVNHLSKLEYLNAILRETLRLMPTAPAFTVGALKDDVIGGKYAVKKGEPINPILQAVHCDKEVYGPDATEWKPERMLEEGFHKLPANSWKPFGNGKRGCIGRAFAWQEALLVVAVLLQSFTFTEDDPSYQLRIREALTIKPDGFKIRATLREHKTTAGMVPESVQSLRQAQKSGKPGNSKSSANESMVGQGNGRSVSIFYGSNSGSCESLANLLASDCAKYGFSVQTTDALDAARENFTSNQIVLIVASTYDGKPADNATEFVNWLKSLTGEPLKGVSYAVFGCGHHDWATTFYKIPILIDELLEQRGAQRVAPRGAANAAVSDLFSDLEKWEESILWPALGLTPALLESQGDTQPRLTISFQRPYTQRKEFLEATVTSASELTTSASPSRKCHMELQLPQDMTYNTGDYLAVLPLNPLSNVQRALSRFHLAWDSVLVIEATGPTQLPTATPISVADLFGAYVELSQPATPRNIRALAGAASDEPTKQALLKLAEDDFATQVRDKRLSVLDLLGQYESVALPVEAFIEMLLPLRPRTYSISSAPQWNPSHASITWSIIDTVSWSGHGRFLGVASNHLYDLSPGAVVRVSVRRSNPAFHPPQDPNSYPIIMIASGSGLAPFRGFIQERALQQKAGMTLAPALLFFGCRGRDDDLHRAEMDDFEKSGVVRVMRAYSKAPNEPDAFGCAYIQERVWSERKEFRELWNRGATVFVCGGTKMSEAIKDVFIKIAYGNAGQDDNKSSRDWFASLDPHRYVAEVFN
- ω-7 hydroxylase activity C12FA: −
- ω-7 hydroxylase activity C12ol: −
